These are literature values, as cited in PMC12728182.

Targets include PAK1 (Homo sapiens) (UniProt Q13153); WASP (Homo sapiens) (UniProt P42768); ACK (Homo sapiens) (UniProt Q07912).

Chain of Cdc42 (P60953 1-188): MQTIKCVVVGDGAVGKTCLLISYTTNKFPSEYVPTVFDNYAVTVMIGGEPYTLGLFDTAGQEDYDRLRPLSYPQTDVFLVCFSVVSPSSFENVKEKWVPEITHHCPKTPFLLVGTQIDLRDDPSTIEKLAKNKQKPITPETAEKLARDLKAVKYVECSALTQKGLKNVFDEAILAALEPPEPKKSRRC
Chain of WASP (Homo sapiens) (P42768 2-502): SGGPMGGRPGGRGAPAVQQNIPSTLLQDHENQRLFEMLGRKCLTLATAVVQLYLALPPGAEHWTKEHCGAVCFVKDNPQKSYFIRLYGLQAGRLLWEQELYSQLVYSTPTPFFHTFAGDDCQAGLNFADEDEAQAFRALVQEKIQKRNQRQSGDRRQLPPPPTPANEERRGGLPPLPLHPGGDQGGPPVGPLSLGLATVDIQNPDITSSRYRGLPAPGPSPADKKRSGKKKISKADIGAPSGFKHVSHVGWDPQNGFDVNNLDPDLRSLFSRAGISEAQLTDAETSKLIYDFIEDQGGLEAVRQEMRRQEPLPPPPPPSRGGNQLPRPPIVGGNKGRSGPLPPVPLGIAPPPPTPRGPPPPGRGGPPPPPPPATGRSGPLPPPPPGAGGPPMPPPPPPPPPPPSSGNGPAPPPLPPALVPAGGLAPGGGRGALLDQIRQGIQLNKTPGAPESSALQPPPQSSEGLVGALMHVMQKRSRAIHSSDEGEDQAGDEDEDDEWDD
Chain of ACK (Homo sapiens) (Q07912 whole entry): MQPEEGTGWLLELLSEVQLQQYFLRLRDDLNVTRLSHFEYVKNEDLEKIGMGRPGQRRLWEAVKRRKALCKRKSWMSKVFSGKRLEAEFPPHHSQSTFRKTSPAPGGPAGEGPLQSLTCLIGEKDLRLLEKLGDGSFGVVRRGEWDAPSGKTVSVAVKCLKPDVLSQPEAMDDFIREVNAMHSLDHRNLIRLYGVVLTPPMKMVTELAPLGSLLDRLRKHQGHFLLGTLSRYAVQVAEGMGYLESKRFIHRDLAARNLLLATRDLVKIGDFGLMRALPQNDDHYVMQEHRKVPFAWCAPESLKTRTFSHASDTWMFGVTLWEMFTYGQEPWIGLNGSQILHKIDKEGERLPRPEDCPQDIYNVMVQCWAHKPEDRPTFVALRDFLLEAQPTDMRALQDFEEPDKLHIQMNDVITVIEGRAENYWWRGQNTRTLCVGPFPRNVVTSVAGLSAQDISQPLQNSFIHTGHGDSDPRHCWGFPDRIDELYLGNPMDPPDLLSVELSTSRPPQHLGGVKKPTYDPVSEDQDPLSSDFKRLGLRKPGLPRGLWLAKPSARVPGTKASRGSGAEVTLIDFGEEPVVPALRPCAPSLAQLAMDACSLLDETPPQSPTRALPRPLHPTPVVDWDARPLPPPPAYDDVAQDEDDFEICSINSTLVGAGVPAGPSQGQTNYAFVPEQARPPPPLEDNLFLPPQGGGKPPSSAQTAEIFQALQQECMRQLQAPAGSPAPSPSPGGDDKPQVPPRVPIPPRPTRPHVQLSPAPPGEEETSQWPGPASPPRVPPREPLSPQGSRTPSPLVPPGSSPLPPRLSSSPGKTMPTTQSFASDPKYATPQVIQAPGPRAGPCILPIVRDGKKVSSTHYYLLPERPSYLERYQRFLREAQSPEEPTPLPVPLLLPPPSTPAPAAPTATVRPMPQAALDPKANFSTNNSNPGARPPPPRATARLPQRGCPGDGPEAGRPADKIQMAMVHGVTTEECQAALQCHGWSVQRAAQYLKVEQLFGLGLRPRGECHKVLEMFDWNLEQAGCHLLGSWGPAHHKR
Chain of PAK1 (Homo sapiens) (Q13153 2-545): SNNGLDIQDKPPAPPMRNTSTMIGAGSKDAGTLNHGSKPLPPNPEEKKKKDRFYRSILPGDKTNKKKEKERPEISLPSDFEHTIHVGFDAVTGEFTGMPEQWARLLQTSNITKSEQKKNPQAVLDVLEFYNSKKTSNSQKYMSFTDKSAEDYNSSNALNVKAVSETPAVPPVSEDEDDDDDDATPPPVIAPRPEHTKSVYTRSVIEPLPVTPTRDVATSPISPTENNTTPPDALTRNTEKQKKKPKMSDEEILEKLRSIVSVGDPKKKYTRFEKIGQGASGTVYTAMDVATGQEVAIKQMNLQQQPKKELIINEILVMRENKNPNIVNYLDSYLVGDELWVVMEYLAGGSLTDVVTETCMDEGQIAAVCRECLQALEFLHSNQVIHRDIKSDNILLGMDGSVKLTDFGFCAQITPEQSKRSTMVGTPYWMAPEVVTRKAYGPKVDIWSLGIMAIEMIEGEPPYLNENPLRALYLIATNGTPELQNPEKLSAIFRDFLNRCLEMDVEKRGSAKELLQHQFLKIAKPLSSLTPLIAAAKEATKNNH

Regarding Cdc42 (from UniProt P60953), the figures for the Kd with PAK1 (Homo sapiens), with WASP (Homo sapiens) and with ACK (Homo sapiens) were 620 nM, 55 nM and 770 nM, respectively.
